From the nanobody polyreactivity screen of Harvey et al. (2022)

test: yeast display, Sf9 membrane polyspecificity reagent, FACS + sequencing; frameworks hold sequencing errors
Method in brief: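 Nanobodies came from a synthetic yeast display library in Saccharomyces cerevisiae BJ5465, induced with galactose for 36–48 hours and stained for 1 hour at 4 °C with 10% biotinylated, detergent-solubilized Sf9 membrane reagent. Cells were enriched on streptavidin microbeads and then FACS-sorted, with low and high (top ~1%) gates set on anti-HA fluorescence for expression and streptavidin fluorescence for reagent binding. Each polyreactivity label reflects the gate a clone came from. Genes were amplified by colony PCR, sequenced by MiSeq 2 × 250 and filtered by CDR length.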

Sequence	polyreactivity (PSR sort gate)
QVQLVESGGGLVQAGGSLRLSCAASGRILYNYAMGWYRQAPGKECELVAAISSGGSTNYADSVKGRFTISRDNAKNTVYFQMNSLKPEDTAVYYCAAYRGHSWRGLYRWSDYDFWGQGTQVTVSS	low polyreactivity
QVQLVESGRGLVQAGGSLRLSCAASGFIFDYNTMGWYRQAPGKERELVAGITSGGSTYYADSVKGRFTISRDNEKNTFYLQMNSLKPDDTAVYYCATDDDEYYGYDYWGQGTQVTVST	low polyreactivity
QVQLVESGGGLVQAGGSLRLSCAASGPTFGGYTMGWYRQAPGKERELVAAITWSGGRTYYADSVKGRFTISRDNAKNTVYLQMNSLKPEDTAVYFCATSRSRERPLHNGPYYYWGLGTQVTVSS	high polyreactivity
QVQLVEAGGGLVQAGGSLRLSCAASGRTFYQNAMGWNIQAPGKERELVAAISRSGGSTYYADSVKGRFTISRDNAKITVYLQMTSLKPEDTAVYYCAADPRSYGGGYDYWGQGTQVTVSS	high polyreactivity
QVQLVESGGGLVQAGGSLRLSCAASGSINHYAMGWYRQAPGKERELVAAISSSGGTTYYADSVKGRFTISRDNAKNTVYLQMNSLKPEDTAVYYCAADKLSGGLDYWGQGTQVTVSS	high polyreactivity
QVQLVESGGGLVQAGGSLRLSCAASGRIFTYNAMGGYRQAPGKESEFVAAISSGGSTTYADSVKGRFTISRDNAKNTVYLQMISLKPEDTAVYYCAARGWRFAIIQYEYWGQGTQVTVSS	low polyreactivity
QVQLVESGGGLVQAGGSLRLSCAASGYLWYYAMGWYRQSPGKERELVAAICWGGGSTFFADSVKGRFTISRDNAKNTVYLQMNSLKPEDTAVYYCAAVDAVGPTSHAMFYWGQGTQVTGSS	low polyreactivity
QVQLVESGGGLVQAGGSLRLTCAASGSTFYVYAMGWYRQAPGKERELVAAIDDSGDRTYYADSVKGRFTISRDNAKNTVYLQMNSLKPEDTAVYYCAAEYDSWEYDYWGQGTQVTVSS	low polyreactivity
QVQLVESGGGLVQAGGSLRLSCAASGFTISRYAMGWYRQAPGKERELVASITYSGTRTYYADSVKGRFTISRDNAKNTVYLQMNSLKPEDTAVYYCAADDEYKQEAEMDSWGQGTQVTVSS	low polyreactivity
QVQLVESGGGLVQAGGSLRLSCAASGRTFGWYTMGWYRQAPGKEREFVAAISSSDTSTYYADSVKGRFTISRDNAKNTVYLQMNSLKPEDTAVYYCAADPPSWRWFVGYSYDYWGQGTQVTVSS	low polyreactivity
HVQLEESGGGLVQAGGSLRLSCAASGITFYKYVMGSYRQAPGKERELVAAITYSGGSRYYADSVKGRFTISRDNAKNTVYLPMNSLKPEDSAVYYWNAYYYWYFPYTYDYWGQGTQVTVSS	high polyreactivity
QVHLLASGGGLVQAGGSLGLSCAASGRPFNGYALGWYRPAPGSERELVASITLRGGSTYYADSVKGRFTISRDNAKYTVYLQMNCLKPEDTAVYYCNARPNTRRYTFPYGNCGQGTQVTVSS	high polyreactivity
QVQLVESGGGLVQAGGSLRLSCAASGRIWLYAMGWYRQAPGKERELVAAISWTDGRTRYADSVKGRFTISRDNAKNTVYLQMNRLKPEDTAVYYCAPVVDRGYRRVKYYYWGQGTQVSVSS	high polyreactivity
QVQLVESGGGLVQAGGSLRLSCAASGFIFTDNAMGWYRQAPGKERELVAAISKNGGSTYYADSVKGRFTISRDNAKNTVYLQMNSLKPDDTAVYYCNAVRRDSGTYRSPDTTRYDYWGQVTQVTVSS	high polyreactivity
QVQLVESGGGLVQAGVILRLSCAASGRIFIPYAMGWYIQAPGKERELVAAISYRGGSTYYADSVKGRFTISRDNAKNTVYLQMNSLKPEDTAVYYCANYDYWGQGTQVTVSS	high polyreactivity
QVQLVESGGGLVQAGGSLRLSCAASGGIFIRYAMGWYRQAPGKEREFVAAIRWRGTNTYYADSVKGRFTISRDNAKNTVYLQMNSLKPEDTAVYYCAARPYYITRYKGMDYWGQGTQVTVSS	high polyreactivity
QLQLVESGGGLVQAGGSLRLSCAASGRIFDGNTMGWYRQAPGKERELVAAITYSGGRTSYADSVKGRFTISRDNAKNTVYLQMISLKPEDTAVYYCNARVVTGSWYEGYYWGQGTQVTVSS	low polyreactivity
QVQLVESGGGLVQAGGSLRLSCAASGSTFFHYARGWYRQAPGKERELVAAISGSGGSTYYADSVKGRFTISRDNAKNTVYLQMNSLKPEDTAVYYCNARVWHYTSRTTFDYWGQGTQVTVSS	low polyreactivity
QVQLVESGGGLVQAGGSLRLSCAASGGIAGNTMGWYRQAPGKERELVAAITRSGGRTYYADSVKGRFTISRDNAKNTVYLQMNSLKPEDTAVYYCAVTGLVRRRYGYWGQGTQVTVSS	high polyreactivity
QVQLVESGGGLVQAGGSLRLSCAASGRIFSNYAMGWYRHAPGKEREFVAAISGSGGITYYADSVKGRFTISRDNAKNTFYLQMNSLKPEDTAVYYCARRLHYVPLISYNYWGQGTQVTVSS	low polyreactivity
QVQLEESGGGLVQAGGSLRLSCAASGSIFWGYAIGWYRQAPGKERELVAAISNTGSTNYADSVKGRFTISRDNAKNTVYLQMNSLKPEDTAVYYCNASYTYGEMDYWGQGTQVTVSS	low polyreactivity
QVQLVESGGGLVQAGGSLRLSCAASGITFFWYDMGWYRQAPGKERELVASISSGGTTSYADSVKGRFTISRDNAKNTVYLQMNSLKPEDTAVYYCAATHWNRWHFDYWGQGTQVTVSS	low polyreactivity
QVQLVESGGGLVQAGGSLRLSCAASGRIFGRYGMGWYRQAPGKERELVAAISRSGDRTYYADSVKGRFTISRDNAKNTVYLQMNSLKPEDTAVYYCAAYSYRYDYWGQGTQVTVSS	high polyreactivity
QVQLVESGGGLVQAGGSLRLSCAASGYIFGNYAMGWYRQAPGKERELVAAISKSGVTTYYADSVKGRFTISRDNAKNTVYLQMNSLKPEDTAVYYCIARSWRPINARYNEYDYWGQGTQVTVSS	low polyreactivity
QVHLVESGGGLVQAGGSLRLSCAASASTYGSNSMGWYRQAPGKERELVAAITLPGASTYYADSVKGRFTISRDNAKNTVSLEMNSLKGEDTSVYSCAAQIHPRRDYSAFDYWGPGTQVTVSS	low polyreactivity
QVQLVESGGGLVQAGGSLRLSCAASGLTFERYAMGWYRQAPGKERELVADITWSGGRTYYADSVKGRFTISRDNAKNTVYLQMNSLKPEDTAVYYCAADVYPGYVGSQEYDYWGQGTQVTVSS	low polyreactivity
QVQLVESGGGLVQAGGSLRLSCAASGYTFGVYVMGWYRQAPGKERELVAAISGSTYYAYSVKGRFTISRDNAKNTVYLQMNSLKPEDTAVYYCAAESYFFSPRTREKFDYWGQGTQVTVSS	low polyreactivity
QVQLVESGGGLVQAGGSLRLSCAASGSIFFYYAMGWYRQAPGKERELVATITSGGSTSYADSVKGRFTISRDNAKNTVFLQMNSLKPEDTAVYYCAARKVTKSTYNYWGQGTQVTVSS	low polyreactivity
QVQLHESGGGLVQAGGSLRLSCAASGTISVTYNMGWYRQAPGKEREFVAGNSTGATTNYADSVKGRFTISRDNAKKTVYLQMNSLKPEDTAVYYCAAHIYRQDHFYYWGQGTQVTVSS	low polyreactivity
QVQLVESGGGLVQAGGSLRLSCAASGRIFGIYAMGWYRQAPGKERELVASITDGTITNYADSVKGRFTISRDNAKNTVYLQMNSLKPVDTAVYYCAAGTQAHAYVVRPIEMDYWGQGTQVTVSS	low polyreactivity
